{"source": "FireProtDB (doi:10.1016/0022-2836(92)90563-y)", "parents": {"B1": {"name": "Ribonuclease, P00648 (parent)", "chain": "MMKMEGIALKKRLSWISVCLLVLVSAAGMLFSTAAKTETSSHKAHTEAQVINTFDGVADYLQTYHKLPDNYITKSEAQALGWVASKGNLADVAPGKSIGGDIFSNREGKLPGKSGRTWREADINYTSGFRNSDRILYSSDWLIYKTTDHYQTFTKIR"}}}
{"variants_of": "B1", "conditions": "Bacillus amyloliquefaciens; pH 6.3; 25 °C; Urea; Fluorescence; MES 50 micro M; reversible: yes; structure 1BNI; whole UniProt chain shown", "units": {"ddG of mutation (higher = less stable)": "kcal/mol"}}
{"variant": "I135V", "ddG of mutation (higher = less stable)": 1.34}
{"variant": "I51V", "ddG of mutation (higher = less stable)": 0.67}
{"variant": "Y60A Y64A", "ddG of mutation (higher = less stable)": 5}
{"variant": "T63S", "ddG of mutation (higher = less stable)": 1.68}
{"variant": "T63R", "ddG of mutation (higher = less stable)": -0.47}
{"variant": "S138A", "ddG of mutation (higher = less stable)": 1.94}
{"variant": "I156V", "ddG of mutation (higher = less stable)": 0.76}
{"variant": "V83T", "ddG of mutation (higher = less stable)": 1.15}
{"variant": "L61A", "ddG of mutation (higher = less stable)": 4.32}
{"variant": "I72V", "ddG of mutation (higher = less stable)": 1.12}
{"variant": "Y60A", "ddG of mutation (higher = less stable)": 3.71}
{"variant": "E76G", "ddG of mutation (higher = less stable)": 1.76}
{"variant": "I123V", "ddG of mutation (higher = less stable)": 0.82}
{"variant": "T152V", "ddG of mutation (higher = less stable)": 2.25}
{"variant": "T146V", "ddG of mutation (higher = less stable)": 2.99}
{"variant": "N105A", "ddG of mutation (higher = less stable)": 2.17}
{"variant": "T53A", "ddG of mutation (higher = less stable)": 2.15}
{"variant": "T53G", "ddG of mutation (higher = less stable)": 1.21}
{"variant": "N124A", "ddG of mutation (higher = less stable)": 1.66}
{"variant": "K109R", "ddG of mutation (higher = less stable)": 0.43}
{"variant": "N52A", "ddG of mutation (higher = less stable)": 1.85}
{"variant": "L80Q", "ddG of mutation (higher = less stable)": 1.3}
{"variant": "I98V", "ddG of mutation (higher = less stable)": 1.8}
{"variant": "S139A", "ddG of mutation (higher = less stable)": 2.8}
{"variant": "T63S Y64A", "ddG of mutation (higher = less stable)": 2.55}
{"variant": "H65Q", "ddG of mutation (higher = less stable)": 1.44}
{"variant": "V92A", "ddG of mutation (higher = less stable)": 1.72}
{"variant": "V92T", "ddG of mutation (higher = less stable)": 2.32}
{"variant": "T73G", "ddG of mutation (higher = less stable)": 1.42}
{"variant": "T73A", "ddG of mutation (higher = less stable)": 1.93}
{"variant": "Y64A", "ddG of mutation (higher = less stable)": 2.43}
{"variant": "Y125F", "ddG of mutation (higher = less stable)": 1.35}
{"variant": "V57A", "ddG of mutation (higher = less stable)": 3.4}
{"variant": "V57T", "ddG of mutation (higher = less stable)": 2.48}
{"variant": "I102V", "ddG of mutation (higher = less stable)": 0.3}
{"variant": "N131A", "ddG of mutation (higher = less stable)": 2.02}
